The values that follow are results of earlier work, collected in PMC1298930.

The term Kd denotes the concentration at which binding is half-saturated.

The target in the data set is PCNA2 (Sulfolobus solfataricus) (UniProt Q97Z84).
UniProt Q97Z84, sequence (Q97Z84 whole entry): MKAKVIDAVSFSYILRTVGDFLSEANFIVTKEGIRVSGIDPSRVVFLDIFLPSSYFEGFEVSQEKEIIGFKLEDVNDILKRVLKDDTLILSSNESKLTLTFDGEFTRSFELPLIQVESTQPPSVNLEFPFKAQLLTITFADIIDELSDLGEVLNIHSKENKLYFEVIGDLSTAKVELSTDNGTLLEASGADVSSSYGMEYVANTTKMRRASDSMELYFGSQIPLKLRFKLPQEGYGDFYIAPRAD

With PCNA1 (from UniProt P57766), the dissociation constant (Kd) is 0.012 nM.
